Measurements as given in patent publication US4609623A, “Microbiologically produced D-2-hydroxy-4-methylpentanoic acid dehydrogenase, process for its production and its use” (Degussa AG, priority 1983, dated 1986).

Experiments:
[1] = molecular target: T1, D-2-hydroxy-4-methylpentanoic acid dehydrogenase (Lacticaseibacillus paracasei, UniProt P17584); experiment: Reduction kinetics: reaction velocity versus NADH and 2-ketocarboxylic acid concentration; assay type: biochemical, Lactobacillus casei ssp. pseudoplantarum; parameters: endogenous in cells; host or cells: Lactobacillus casei ssp. pseudoplantarum DSM 20008, enzyme isolated from the cells grown in house
T1 sequence (P17584 1-333): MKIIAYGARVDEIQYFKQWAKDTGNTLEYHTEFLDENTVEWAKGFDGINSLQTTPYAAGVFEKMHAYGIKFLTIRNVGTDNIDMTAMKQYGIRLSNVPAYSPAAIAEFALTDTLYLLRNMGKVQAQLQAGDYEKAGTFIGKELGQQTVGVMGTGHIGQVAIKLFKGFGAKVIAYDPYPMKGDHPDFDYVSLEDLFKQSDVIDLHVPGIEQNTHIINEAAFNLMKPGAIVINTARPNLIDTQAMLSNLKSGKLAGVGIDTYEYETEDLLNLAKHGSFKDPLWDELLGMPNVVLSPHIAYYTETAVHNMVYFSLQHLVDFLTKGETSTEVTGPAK
Method: The reaction speed for reduction of different 2-ketocarboxylic acids was also investigated as a function of the keto acid concentration. […] The ketocarboxylic acid concentration was in each case varied from 0.01 to a maximum of 60 mM. The initial reaction velocity, change of extinction at 340 nm/min, was evaluated by non-linear regression of the Michaelis-Menten equation.

[2] = molecular target: T1, D-2-hydroxy-4-methylpentanoic acid dehydrogenase; experiment: Reduction of 2-ketocarboxylic acids in an enzyme membrane reactor with PEG-NADH, polarimetric read-out; assay type: biochemical, Lactobacillus casei ssp. pseudoplantarum (DSM 20008); parameters: endogenous in cells; host or cells: Lactobacillus casei ssp. pseudoplantarum DSM 20008, enzyme isolated from the cells grown in house; conditions: 7.0 mM 2-ketocarboxylic acid feed, stationary value; for Rotation of Production Solution: 463 nm, 25° C.
Method: (Preparation according to DE-PS 28 41 414). The following keto acids were converted individually in the reactor:
2-keto-4-methylpentanoic acid (sodium salt), 2-keto-4-(methylmercapto)-butyric acid (sodium salt) and phenyl pyruvate (sodium salt). The product stream flowing out of the membrane reactor was analyzed continuously in a polarimeter. The signals obtained were evaluated by means of calibration curves which had been obtained from optically active 2-hydroxy acids.
The PEG-NADH is prepared according to DE-PS No. 28 41 414. […] The reactor volume is kept constant, by adding keto acid and sodium formate buffer from a reservoir at the same rate as the ultrafiltrate leaves the reactor. The reactor volume was 10 ml, the concentration of PEG-NADH 0.20 mM, and 9 U D-2-hydroxy-4-methylpentanoic acid dehydrogenase (27 U/mg) and 30 U formate-dehydrogenase were fed into the reactor. The substrate solution contained 300 mM sodium formate buffer of pH 7.0 and 7.0 mM of the corresponding 2-ketocarboxylic acid. The reaction solution was pumped over the membrane continuously with a peristaltic pump at 30 ml/hour. About 3 ml ultrafiltrate per hour was obtained. The ultrafiltrate was led continuously through a polarimeter cell (Perkin Elmer Type 241). The determinations were carried out at 463 nm and 25° C. From the measured rotatory value, the product concentration was determined from a calibration curve. The calibration curves were prepared with optically active 2-hydroxycarboxylic acids in 300 mM sodium formate buffer of pH 7.0. For this, the following preparations were used: L-phenyllactic acid (Sigma Company, Munich), L-2-hydroxy-4-methylpentanoic acid (Sigma Company, Munich), and D-2-hydroxy-4-(methylmercapto)-butyric acid (Degussa Company, Hanau). The conversion in the membrane reactor was followed over a period of 15 hours.

[3] = molecular target: T1, D-2-hydroxy-4-methylpentanoic acid dehydrogenase; experiment: Dehydrogenation kinetics: reaction velocity versus NAD+ and 2-hydroxycarboxylic acid concentration
Method: The dependence of the reaction velocity on the NAD^+ concentration in the dehydrogenation of D-2-hydroxy-4-methylpentanoic acid was studied in the following test mixture: 0.1M phosphate buffer at pH 8.0, 12 mM D,L-2-hydroxy-4-methylpentanoic acid, limiting quantities of enzyme.
The dependence of the reaction speed on the concentration of different 2-hydroxycarboxylic acids for the dehydrogenation of D-2-hydroxycarboxylicacids was tested in the following test mixture: 0.1M phosphate buffer at pH 8.0, 4.5 mM NAD^+ and limiting quantities of enzyme. The concentration of D-2-hydroxycarboxylic acid was varied in the range from 0.1 to a maximum of 30 mM. Inasmuch as no chiral D-2-hydroxycarboxylic acid was available, the racemate was added. […] The initial reaction velocity was evaluated according to Michaelis-Menten, and the kinetic constants Vmax and KM determined by non-linear regression.

[4] = substrate: CCC(C)C(=O)C(=O)O; experiment: purified protein, by the assay type; assay type: biochemical, Lactobacillus casei ssp. pseudoplantarum; conditions: other: reduction, pH 7.0, 0.1 mM NADH
[5] = substrate: CCCCC(=O)C(=O)O; experiment: purified protein, by the assay type; assay type: biochemical, Lactobacillus casei ssp. pseudoplantarum; conditions: other: reduction, pH 7.0, 0.1 mM NADH
[6] = substrate: CCCC(=O)C(=O)O; experiment: purified protein, by the assay type; assay type: biochemical, Lactobacillus casei ssp. pseudoplantarum; conditions: other: reduction, pH 7.0, 0.1 mM NADH
[7] = substrate: CCC(=O)C(=O)O; experiment: purified protein, by the assay type; assay type: biochemical, Lactobacillus casei ssp. pseudoplantarum; conditions: other: reduction, pH 7.0, 0.1 mM NADH
[8] = substrate: CC(C)CC(=O)C(=O)O; experiment: purified protein, by the assay type; assay type: biochemical, Lactobacillus casei ssp. pseudoplantarum; conditions: other: reduction, pH 7.0, 0.1 mM NADH
[9] = substrate: CSCCC(=O)C(=O)O; experiment: purified protein, by the assay type; assay type: biochemical, Lactobacillus casei ssp. pseudoplantarum; conditions: other: reduction, pH 7.0, 0.1 mM NADH
[10] = substrate: CCCCCCC(=O)C(=O)O; experiment: purified protein, by the assay type; assay type: biochemical, Lactobacillus casei ssp. pseudoplantarum; conditions: other: reduction, pH 7.0, 0.1 mM NADH
[11] = substrate: O=C(O)C(=O)CS; experiment: purified protein, by the assay type; assay type: biochemical, Lactobacillus casei ssp. pseudoplantarum; conditions: other: reduction, pH 7.0, 0.1 mM NADH
[12] = substrate: CC(C)C(=O)C(=O)O; experiment: purified protein, by the assay type; assay type: biochemical, Lactobacillus casei ssp. pseudoplantarum; conditions: other: reduction, pH 7.0, 0.1 mM NADH
[13] = substrate: CCCC(O)C(=O)O; experiment: purified protein, by the assay type; conditions: other: dehydrogenation, pH 8.0, 4.5 mM NAD+, calculated assuming 50% D-acid in the racemic mixtures
[14] = substrate: NC(=O)C1=CN([C@@H]2O[C@H](COP(=O)(O)OP(=O)(O)OC[C@H]3O[C@@H](n4cnc5c(N)ncnc54)[C@H](O)[C@@H]3O)[C@@H](O)[C@H]2O)C=CC1; experiment: purified protein, by the assay type; conditions: other: pH 7.0, 0.7 mM 2-keto-4-methylpentanoic acid
[15] = substrate: NC(=O)c1ccc[n+]([C@@H]2O[C@H](COP(=O)([O-])OP(=O)(O)OC[C@H]3O[C@@H](n4cnc5c(N)ncnc54)[C@H](O)[C@@H]3O)[C@@H](O)[C@H]2O)c1; experiment: purified protein, by the assay type; conditions: other: pH 8.0, 12 mM D,L-2-hydroxy-4-methylpentanoic acid
[16] = substrate: CC(C)C[C@@H](O)C(=O)O; experiment: purified protein, by the assay type; conditions: other: dehydrogenation, pH 8.0, 4.5 mM NAD+, calculated assuming 50% D-acid in the racemic mixtures
[17] = substrate: CCCCC(O)C(=O)O; experiment: purified protein, by the assay type; conditions: other: dehydrogenation, pH 8.0, 4.5 mM NAD+, calculated assuming 50% D-acid in the racemic mixtures
[18] = substrate: CC(C)CC(O)C(=O)O; experiment: purified protein, by the assay type; conditions: other: dehydrogenation, pH 8.0, 4.5 mM NAD+, calculated assuming 50% D-acid in the racemic mixtures
[19] = substrate: CCCCCCC(O)C(=O)O; experiment: purified protein, by the assay type; conditions: other: dehydrogenation, pH 8.0, 4.5 mM NAD+, calculated assuming 50% D-acid in the racemic mixtures
[20] = substrate: O=C(O)C(O)Cc1ccccc1; experiment: purified protein, by the assay type; conditions: other: dehydrogenation, pH 8.0, 4.5 mM NAD+, calculated assuming 50% D-acid in the racemic mixtures
[21] = substrate: O=C(O)C(=O)Cc1ccccc1; experiment: purified protein, by the assay type; conditions: other: reduction, pH 7.0, 0.1 mM NADH
[22] = substrate: CSCCC(O)C(=O)O; experiment: purified protein, by the assay type; conditions: other: dehydrogenation, pH 8.0, 4.5 mM NAD+, calculated assuming 50% D-acid in the racemic mixtures

## NC(=O)C1=CN([C@@H]2O[C@H](COP(=O)(O)OP(=O)(O)OC[C@H]3O[C@@H](n4cnc5c(N)ncnc54)[C@H](OP(=O)(O)O)[C@@H]3O)[C@@H](O)[C@H]2O)C=CC1 [NADPH]
[1]; checked up to a test concentration of 0.2 mM
  Replacement of the coenzyme NADH: cannot replace

## O=C(O)C(=O)Cc1ccccc1 [2-keto-3-phenylpropionic acid]
[2]
  Rotation of Production Solution: -0.115 °
  % conversion: 100%
  Product concentration: 7.0 mM

## CC(C)CC(=O)C(=O)O [2-keto-4-methylpentanoic acid]
[2]
  Rotation of Production Solution: -0.047 °
  % conversion: 100%
  Product concentration: 7.0 mM

## CSCCC(=O)C(=O)O [2-keto-4-(methylmercapto)-butyric acid]
[2]
  Rotation of Production Solution: -0.071 °
  % conversion: 98%
  Product concentration: 6.9 mM

## NC(=O)c1ccc[n+]([C@@H]2O[C@H](COP(=O)([O-])OP(=O)(O)OC[C@H]3O[C@@H](n4cnc5c(N)ncnc54)[C@H](O)[C@@H]3O)[C@@H](O)[C@H]2O)c1 [NAD^+, nicotinamide-adeninedinucleotide]
[3]; pH 8.0, 12 mM D,L-2-hydroxy-4-methylpentanoic acid
  NAD+ concentration at which the optimum conversion is reached: 4.5 mM

## NC(=O)c1ccc[n+]([C@@H]2O[C@H](COP(=O)([O-])OP(=O)(O)OC[C@H]3O[C@@H](n4cnc5c(N)ncnc54)[C@H](OP(=O)(O)O)[C@@H]3O)[C@@H](O)[C@H]2O)c1 [NADP]
[3]; checked at test concentrations up to 10 mM
  Replacement of the coenzyme NAD+: cannot replace

## NC(=O)C1=CN([C@@H]2O[C@H](COP(=O)(O)OP(=O)(O)OC[C@H]3O[C@@H](n4cnc5c(N)ncnc54)[C@H](O)[C@@H]3O)[C@@H](O)[C@H]2O)C=CC1 [NADH]
[1]; pH 7.0, 0.7 mM 2-keto-4-methylpentanoic acid
  NADH concentration at which the optimal reaction velocity was reached: 0.10 mM

B1: D-2-hydroxy-4-methylpentanoic acid dehydrogenase (Lacticaseibacillus paracasei) (protein)
chain: T1 sequence (P17584 1-333)
notes: 500 g Lactobacillus casei ssp. pseudoplantarum (DSM 20008) wet mass was suspended in 50 mM phosphate buffer; endogenous in cells; host or cells: Lactobacillus casei ssp. pseudoplantarum DSM 20008, enzyme isolated from the cells grown in house
[4]
  Km: 2200 µM
  Vmax: 26.2 µmol/min/mg
[5]
  Km: 110 µM
  Vmax: 58.4 µmol/min/mg
[6]
  Km: 110 µM
  Vmax: 59.1 µmol/min/mg
[7]
  Km: 1700 µM
  Vmax: 45.9 µmol/min/mg
[8]
  Km: 60 µM
  Vmax: 27.4 µmol/min/mg
[9]
  Km: 620 µM
  Vmax: 82.1 µmol/min/mg
[10]
  Km: 310 µM
  Vmax: 54.0 µmol/min/mg
[11]
  Km: 400 µM
  Vmax: 104.5 µmol/min/mg
[12]
  Km: 4800 µM
  Vmax: 16.9 µmol/min/mg
[13]
  Km: 700 µM
  Vmax: 10.8 µmol/min/mg
[14]
  Km: 10 µM
[15]
  Km: 450 µM
[16]
  Km: 1400 µM
  Vmax: 20.2 µmol/min/mg
[17]
  Km: 470 µM
  Vmax: 11.3 µmol/min/mg
[18]
  Km: 1400 µM
  Vmax: 20.2 µmol/min/mg
[19]
  Km: 310 µM
  Vmax: 10.0 µmol/min/mg
[20]
  Km: 1100 µM
  Vmax: 32.6 µmol/min/mg
[21]
  Km: 150 µM
  Vmax: 304.4 µmol/min/mg
[22]
  Km: 1500 µM
  Vmax: 2.6 µmol/min/mg
